5 molecules from paper PMC3494861 (The Journal of Cell Biology, 2012) can be followed below.

Assay [1] concerns the target His9-Tob55, short isoform (N. crassa strain Tob55 short HT) (N. crassa). Put plainly: cryo-EM structure.
The target of assay [2] is Tob55 (endogenous; long, intermediate and short isoforms) (N. crassa). Put plainly: cross-linking.
The target of assay [3] is His9-Tob37 (Tob37 with a 9x His tag, N. crassa strain Tob37HT) (N. crassa) (UniProt Q7SFC4). The assay is described as follows: isotope dilution mass spectrometry.
Assay [4] has as its target His9-Tob38 (Tob38 with a 9x His tag, N. crassa strain Tob38HT) (N. crassa) (UniProt V5IPB4). Put plainly: isotope dilution mass spectrometry.
In assay [5] the target is T1, His9-Tob38 (Tob38 with a 9x His tag, N. crassa strain Tob38HT) (N. crassa, UniProt V5IPB4 1-340).
T1 sequence (looked up): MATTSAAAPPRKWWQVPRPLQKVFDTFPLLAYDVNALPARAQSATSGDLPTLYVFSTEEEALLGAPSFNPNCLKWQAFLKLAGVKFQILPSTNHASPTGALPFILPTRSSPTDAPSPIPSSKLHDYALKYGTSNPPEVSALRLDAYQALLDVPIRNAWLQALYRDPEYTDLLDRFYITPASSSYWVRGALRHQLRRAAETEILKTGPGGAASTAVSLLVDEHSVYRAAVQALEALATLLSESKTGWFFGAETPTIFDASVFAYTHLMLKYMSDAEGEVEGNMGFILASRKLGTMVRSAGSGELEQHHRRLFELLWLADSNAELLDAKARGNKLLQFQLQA
Put plainly: native gel or EMSA.

The target in assay [6] is T2, His9-Tob37 (Tob37 with a 9x His tag, N. crassa strain Tob37HT) (N. crassa, UniProt Q7SFC4 1-442).
T2 sequence (looked up): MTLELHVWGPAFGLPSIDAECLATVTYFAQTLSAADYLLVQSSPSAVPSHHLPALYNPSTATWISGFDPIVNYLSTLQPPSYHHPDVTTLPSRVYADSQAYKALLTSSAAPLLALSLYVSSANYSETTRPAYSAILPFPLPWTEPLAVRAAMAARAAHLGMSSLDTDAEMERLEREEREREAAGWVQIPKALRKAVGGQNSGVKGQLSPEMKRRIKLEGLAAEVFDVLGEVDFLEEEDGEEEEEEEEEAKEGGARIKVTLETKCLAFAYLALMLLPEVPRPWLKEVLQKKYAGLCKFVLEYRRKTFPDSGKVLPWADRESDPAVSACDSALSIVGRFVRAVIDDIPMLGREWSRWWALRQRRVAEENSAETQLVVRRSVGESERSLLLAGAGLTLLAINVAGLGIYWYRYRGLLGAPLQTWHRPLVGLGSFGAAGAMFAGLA
Put plainly: native gel or EMSA. In general terms: In EMSA bound probe runs differently from free probe, usually more slowly.

Assay [7] addresses His9-Tob55, short isoform (N. crassa strain Tob55 short HT) (N. crassa). Put plainly: isotope dilution mass spectrometry.
Assay [8] has as its target T1, His9-Tob38 (Tob38 with a 9x His tag, N. …). Put plainly: isotope dilution mass spectrometry.
In assay [9] the target is T2, His9-Tob37 (Tob37 with a 9x His tag, N. …). The assay is described as follows: isotope dilution mass spectrometry.

Usually stoichiometry N stands for a count of units in the complex or per binding partner. In assay [1], “His9-Tob55, short isoform (N. crassa strain Tob55 short HT) (natural protein)” showed a stoichiometry N of 2.
Consider “Tob55 (endogenous; long, intermediate and short isoforms) (natural protein)”, for which the stoichiometry N came out at 2 in assay [2], 1 in [3] and 1 in [4].

B1: Mdm10 (endogenous) (natural protein, N. crassa, UniProt Q7SBE0 1-480, looked up)
chain: MREFMNYITNAFYGATGWNEDNKYNELNATSRELIDFPLPRGLRLTLSSLATPHFATSYQLGSVGVVDGSISYLHSSIPLTHIAAQSDKIPLPALLRCYRRLHDLRSPGQQHYILDADPLSGLPPPPQSARALLGAASDAAVAGGALDGGNTDQDLGIYTHSLLYGRLYLPKSLLEGMIIKRFTQALQVQVRAVSEQSLRNGGTILGLVQYDKGKYGLEGLYSTDGGLLGFRGLYNFGGDASSSTCDPWTPTPGENNNNNNNNNNNNNGNAQAGEKERIYGRFSVGGELYYGTLNKSGGMSLGARFATLPAHRGTPLTATLTINPLMGNINATYALLAREYCSLATRVDFNVYSYESEWAVGMELWSNRRPAGFLLGASPSNDFEPEPHPPRKKERSFQAKMEWRLDDPEPEPEPQPTPKTRKNDEYKGVLKARLDNNLRMGLLWEGRAKSLIFSIGTGIDLHKLGEPFRSLGLEVQYSS
Regarding B1, the “stoichiometry N” value in [5] and in assay [6] was 1 in each case.

B2: Tob37 (endogenous) (natural protein, N. crassa, UniProt Q7SFC4 1-442, looked up)
chain: MTLELHVWGPAFGLPSIDAECLATVTYFAQTLSAADYLLVQSSPSAVPSHHLPALYNPSTATWISGFDPIVNYLSTLQPPSYHHPDVTTLPSRVYADSQAYKALLTSSAAPLLALSLYVSSANYSETTRPAYSAILPFPLPWTEPLAVRAAMAARAAHLGMSSLDTDAEMERLEREEREREAAGWVQIPKALRKAVGGQNSGVKGQLSPEMKRRIKLEGLAAEVFDVLGEVDFLEEEDGEEEEEEEEEAKEGGARIKVTLETKCLAFAYLALMLLPEVPRPWLKEVLQKKYAGLCKFVLEYRRKTFPDSGKVLPWADRESDPAVSACDSALSIVGRFVRAVIDDIPMLGREWSRWWALRQRRVAEENSAETQLVVRRSVGESERSLLLAGAGLTLLAINVAGLGIYWYRYRGLLGAPLQTWHRPLVGLGSFGAAGAMFAGLA
Take B2: the stoichiometry N in [7] and in assay [8] was 1 each time.

B3: Tob38 (endogenous) (natural protein, N. crassa, UniProt V5IPB4 1-340, looked up)
chain: MATTSAAAPPRKWWQVPRPLQKVFDTFPLLAYDVNALPARAQSATSGDLPTLYVFSTEEEALLGAPSFNPNCLKWQAFLKLAGVKFQILPSTNHASPTGALPFILPTRSSPTDAPSPIPSSKLHDYALKYGTSNPPEVSALRLDAYQALLDVPIRNAWLQALYRDPEYTDLLDRFYITPASSSYWVRGALRHQLRRAAETEILKTGPGGAASTAVSLLVDEHSVYRAAVQALEALATLLSESKTGWFFGAETPTIFDASVFAYTHLMLKYMSDAEGEVEGNMGFILASRKLGTMVRSAGSGELEQHHRRLFELLWLADSNAELLDAKARGNKLLQFQLQA
Take B3: the stoichiometry N in assay [7] and in [9] was 1 throughout.
